Changes are numbered by the printed parent chain.
Legend:
Assay in all cases: ELISA, high plateau value (OD 450 nm)
CD73-ND-Y132A = target: T1, CD73-ND-Y132A (human, UniProt P21589 27-317)
T1 construct: Alanine mutant of CD73-ND
T1 sequence: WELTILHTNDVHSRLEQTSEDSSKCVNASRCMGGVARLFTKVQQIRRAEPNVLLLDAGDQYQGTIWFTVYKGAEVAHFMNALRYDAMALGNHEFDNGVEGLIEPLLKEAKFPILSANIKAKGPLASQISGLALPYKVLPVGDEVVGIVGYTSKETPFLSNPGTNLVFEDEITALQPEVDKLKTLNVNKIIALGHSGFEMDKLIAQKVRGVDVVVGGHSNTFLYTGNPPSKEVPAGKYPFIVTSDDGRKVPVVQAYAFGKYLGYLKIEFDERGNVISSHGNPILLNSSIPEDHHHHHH
Experimental: (§1) The ELISA plates were coated with SA protein diluted to 1.5 μg/mL in coating buffer (50 mM carbonate coating buffer, pH 9.6) and incubated overnight at 4° C. The supernatant was discarded, and the plates were washed three times with PBST. Then, 5% skimmed milk powder prepared with PBS was added for blocking and the plates were incubated for 2 h at 37° C. After washing the plates once with PBST, CD73-biotin protein (prepared by biotinylating CD73-His protein according to the EZ-Link NHS-Biotin Reagent instructions) was diluted to 0.5 μg/mL and added at 100 μL/well for incubation at room temperature for 1 h. The plates were washed three times with PBST, and the prepared murine-derived monoclonal antibodies against human CD73 were serially diluted with 1% BSA buffer prepared with PBST and added to the ELISA plates at 100 μl/well. The plates were incubated at 37° C. for 1 h. After washing the plates three times with PBST, HRP-labeled goat anti-mouse IgG secondary antibody was added and the plates were incubated for 30 min at 37° C. After washing the plates three times with PBST, the residual droplets were patted dry on absorbent paper as much as possible. Then, 100 μl of TMB color developing solution was added to each well, and the plates were incubated in the dark at room temperature for 5 min for color development. Subsequently, 50 μl of 2M H₂SO₄ stop solution was added to each well to terminate the substrate reaction. The OD values were read at 450 nm using a multimode microplate reader to analyze the binding ability of the tested antibodies to the target antigen human CD73-His.
(§2) Referring to the experimental method in Example 3, the affinity of 48A11-HuV33 for various mutant proteins of CD73-ND was determined. The SA protein was diluted to 1 μg/mL for coating the ELISA plates, and the biotinylated CD73 protein (CD73-biotin) was used at a concentration of 0.1 μg/mL.

CD73-ND-P134A = target: T2, CD73-ND-P134A (human, UniProt P21589 27-317)
T2 construct: Alanine mutant of CD73-ND
T2 sequence: T1 sequence with A132Y, P134A
Experimental: as §1, §2

CD73-ND-Y135A = target: T3, CD73-ND-Y135A (human, UniProt P21589 27-317)
T3 construct: Alanine mutant of CD73-ND
T3 sequence: T1 sequence with A132Y, Y135A
Experimental: as §1, §2

CD73-ND-L138A = target: T4, CD73-ND-L138A (human, UniProt P21589 27-317)
T4 construct: Alanine mutant of CD73-ND
T4 sequence: T1 sequence with A132Y, L138A
Experimental: as §1, §2

CD73-ND-V137A = target: T5, CD73-ND-V137A (human, UniProt P21589 27-317)
T5 construct: Alanine mutant of CD73-ND
T5 sequence: T1 sequence with A132Y, V137A
Experimental: as §1, §2

CD73-ND-L133A = target: T6, CD73-ND-L133A (human, UniProt P21589 27-317)
T6 construct: Alanine mutant of CD73-ND
T6 sequence: T1 sequence with A132Y, L133A
Experimental: as §1, §2

B1: 48A11-HuV33 (antibody, human IgG4, V domains shown)
VH: QVQLVQSGAEVKKPGASVKVSCKASGYTFTSYWMHWVRQAPGQGLEWIGEINPSIGRTNYNEKFKSRVTLTRDTSTSTAYMELSSLRSEDTAVYYCARRVYGTMDYWGQGTLVTVSS
VL: DIQMTQSPSSLSASVGDRVTITCKASQDINSYLSWFQQKPGKSPKLLIYRANIWVDGVPSRFSGSGSGQDYTFTISSLQPEDIATYYCLQYDELYTFGQGTKVEIK
notes: Humanized
CD73-ND-Y132A
  Top: 0.254
CD73-ND-P134A
  Top: 1.97
CD73-ND-Y135A
  Top: 1.96
CD73-ND-L138A
  Top: 1.91
CD73-ND-V137A
  Top: 1.6
CD73-ND-L133A
  Top: 0.922

Source: patent publication US20250066499A1 (SUNSHINE GUOJIAN PHARMACEUTICAL SHANGHAI, published 2025)
